Test results from patent US20140056903A1 (Regeneron, published 2014).

Legend:
[1] = biological target: T1, cynomolgus GFRα3 on HEK293/MfGFRα3/MfRet/SRE-Luc cells (cynomolgus, UniProt O60609 1-400 (human entry), limits assumed); assay: cell-based or functional assay
T1 chain: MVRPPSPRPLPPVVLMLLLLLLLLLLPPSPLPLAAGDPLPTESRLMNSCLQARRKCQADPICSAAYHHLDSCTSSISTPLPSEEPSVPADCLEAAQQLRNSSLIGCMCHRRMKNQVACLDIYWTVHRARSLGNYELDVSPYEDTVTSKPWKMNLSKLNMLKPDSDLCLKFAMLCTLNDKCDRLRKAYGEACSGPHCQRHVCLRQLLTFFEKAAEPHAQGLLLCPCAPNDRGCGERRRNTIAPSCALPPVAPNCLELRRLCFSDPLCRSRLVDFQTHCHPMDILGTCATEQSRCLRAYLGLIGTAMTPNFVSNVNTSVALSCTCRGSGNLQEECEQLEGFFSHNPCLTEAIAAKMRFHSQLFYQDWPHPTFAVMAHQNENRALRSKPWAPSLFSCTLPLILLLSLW

[2] = biological target: T2, human GFRα1 expressed with only a C-terminal human Fc tag (human); assay: BLI Octet, antigen captured on anti-hFc tips
T2 construct: also called hGFRα1-hFc
Procedure: (§1) The ability of anti-GFRα3 antibodies to bind to GDNF-family receptors was assessed using an Octet Red biosensor (Fortebio, Inc.). Antibodies were tested for binding to either human GFRα1 expressed with a C-terminal human Fc tag and a hexahistidine tag (hGFRα1-hFc-6His, R&D Systems #714-GR), human GFRα1 expressed with only a C-terminal human Fc tag (hGFRα1-hFc; SEQ ID: 376), human GFRα2 expressed with a C-terminal human Fc tag and a hexahistidine tag (hGFRα2-hFc-6His, R&D Systems #613-FR), human GFRα3 expressed with a C-terminal human Fc tag (hGFRα3-hFc, SEQ ID:371), or an irrelevant human Fc tagged protein. Antigens were captured onto anti-human Fc sensor tips from 10 ug/mL solutions for 5 minutes. The coated sensor tips were then blocked with a 100 ug/mL solution of irrelevant human Fc antibodies for 5 minutes. Blocked sensor tips were then submerged into wells containing […] of each anti-GFRα3 antibody or buffer alone for 10 minutes. The experiment was performed at 25° C. with a flow rate of 1000 rpm using HBST+BSA buffer (10 mM HEPES, 150 mM NaCl, 3 mM EDTA, 0.05% w/v Surfactant P20, 0.1 mg/mL BSA, pH 7.4). The binding response (measured in units of nm) at each step of the experiment was monitored and recorded.

[3] = biological target: T3, human GFRα2 expressed with a C-terminal human Fc tag and a hexahistidine tag (human, UniProt O00451 22-441, limits assumed); assay: BLI Octet, antigen captured on anti-hFc tips
T3 construct: bought protein; also called hGFRα2-hFc-6His; hGFRα2-hFc-6his
T3 sequence (looked up): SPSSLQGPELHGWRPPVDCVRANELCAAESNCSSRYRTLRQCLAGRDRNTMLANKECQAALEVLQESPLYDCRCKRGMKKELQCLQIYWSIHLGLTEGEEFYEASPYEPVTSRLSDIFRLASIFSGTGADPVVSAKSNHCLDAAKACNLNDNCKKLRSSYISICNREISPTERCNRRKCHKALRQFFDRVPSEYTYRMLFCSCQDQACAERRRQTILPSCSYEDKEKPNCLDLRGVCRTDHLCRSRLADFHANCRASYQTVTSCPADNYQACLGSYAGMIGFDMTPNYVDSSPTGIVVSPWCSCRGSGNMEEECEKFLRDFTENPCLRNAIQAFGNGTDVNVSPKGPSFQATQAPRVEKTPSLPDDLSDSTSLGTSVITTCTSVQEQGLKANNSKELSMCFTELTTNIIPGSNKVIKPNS
Procedure: as §1

[4] = biological target: T4, human GFRα3 expressed with a C-terminal hFc tag (human); assay: BLI Octet, antigen on anti-hFc tips, 100 ug/mL Ab
T4 construct: also called hGFRα3-hFc

[5] = biological target: T5, human GFRα1 expressed with a C-terminal human Fc tag and a hexahistidine tag (human, UniProt P56159 25-429, limits assumed); assay: BLI Octet, antigen on anti-hFc tips, 100 ug/mL Ab
T5 construct: bought protein; also called hGFRα1-hFc-6His; hGFRα1-hFc-6his
T5 sequence (looked up): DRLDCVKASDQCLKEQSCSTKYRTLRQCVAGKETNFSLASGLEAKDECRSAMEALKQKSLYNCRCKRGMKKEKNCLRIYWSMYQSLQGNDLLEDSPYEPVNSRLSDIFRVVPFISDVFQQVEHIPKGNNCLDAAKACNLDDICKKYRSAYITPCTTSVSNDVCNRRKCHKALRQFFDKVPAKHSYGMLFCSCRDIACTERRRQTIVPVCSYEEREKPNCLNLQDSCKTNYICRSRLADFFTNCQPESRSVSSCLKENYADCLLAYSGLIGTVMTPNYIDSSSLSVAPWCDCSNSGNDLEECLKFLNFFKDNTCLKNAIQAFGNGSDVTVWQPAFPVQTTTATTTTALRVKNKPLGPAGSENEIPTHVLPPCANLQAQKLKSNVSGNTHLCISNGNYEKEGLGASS

[6] = biological target: T3, human GFRα2 expressed with a C-terminal …; assay: BLI Octet, antigen on anti-hFc tips, 100 ug/mL Ab
[7] = biological target: T4, human GFRα3 expressed with a C-terminal …; assay: blocking ELISA 1, hGFRα3-hFc to coated hARTEMIN-mmH
Procedure: A constant amount of human GFRα3 fused with a C-terminal human Fc tag (hGFRα3-hFc; SEQ ID:371) at 120 pM was pre-mixed with varying amounts of antibodies, ranging from 0 to ˜10 nM in serial dilutions, followed by an 1 hour incubation at room temperature (RT) to allow antibody-hGFRα3-hFc binding to reach equilibrium. The equilibrated sample solutions were then transferred to the hARTEMIN-mmH-coated plate. […] Absorbance was recorded at 450 nm on a Victor X5 plate reader (Perkin Elmer) to determine the amount of free hGFRα3-hFc in the pre-equilibrated hGFRα3-hFc-antibody solutions that was able to bind to the plate coated with hARTEMIN-mmH. IC₅₀ values, defined as the concentration of antibody required to reduce the signal from a constant concentration of hGFRα3-hFc by 50%, were calculated from the data using Prism software from GraphPad. The absorbance measured at the constant amount of 120 pM hGFRα3-hFc in the absence of anti-GFRα3 antibody is defined as 0% blocking and the absorbance with no added hGFRα3-hFc is defined as 100% blocking. The observed absorbance in the wells containing the highest antibody concentration was used to calculate the maximum blocking percent shown in the table.

T4 sequence (chain, as listed by the source limits assumed): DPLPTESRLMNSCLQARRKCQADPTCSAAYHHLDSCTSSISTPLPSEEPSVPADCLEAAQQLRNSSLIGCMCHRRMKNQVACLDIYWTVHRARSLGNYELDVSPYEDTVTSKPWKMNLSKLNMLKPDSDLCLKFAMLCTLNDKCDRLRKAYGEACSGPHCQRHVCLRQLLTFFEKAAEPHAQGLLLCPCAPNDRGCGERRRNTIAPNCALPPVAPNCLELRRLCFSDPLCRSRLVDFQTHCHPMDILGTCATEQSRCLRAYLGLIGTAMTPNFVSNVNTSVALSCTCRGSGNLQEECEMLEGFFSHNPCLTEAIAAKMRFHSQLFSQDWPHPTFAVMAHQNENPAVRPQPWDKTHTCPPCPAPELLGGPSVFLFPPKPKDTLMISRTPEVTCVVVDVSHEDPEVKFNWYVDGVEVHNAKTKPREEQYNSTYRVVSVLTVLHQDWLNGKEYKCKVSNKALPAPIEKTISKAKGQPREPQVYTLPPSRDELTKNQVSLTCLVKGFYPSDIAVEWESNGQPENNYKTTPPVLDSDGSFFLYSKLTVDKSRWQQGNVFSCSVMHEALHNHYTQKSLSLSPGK

B1: H4H2352S (antibody, human IgG4, V domains shown)
VH: EVQLVQSGAEVKKPGASVKVSCKASGYTFTNYGITWVRQAPGQGLEWMGWISAYNGNTGYAQKFQGRVTMTTDTSTSTAYMELRSLRSDDTAVYYCAREDYDFWRAFDIWGQGTMVTVSS
VL: EIVLTQSPGTLSLSPGERATLSCRASQSVSSTYLAWLQQKPGQAPRLLIYGASSRATGIPDRFSGSGSGTDFTLTINRLEPEDFAVYYCQQYAYSPYTFGQGTKLEIK
notes: human IgG4 Fc (H4H); also called H4H2352S-1
IC50 (SRE-luc, HEK293/MfGFRα3/MfRET cells, 500 pM human ARTEMIN-MMH) [1]: 1.3 nM | binding result [2]: no binding (tested: 100 ug/mL) | binding result [3]: no binding (tested: 100 ug/mL) | Bound (nm) [4]: 1.25 nm | Bound (nm) [5]: 0.03 nm | Bound (nm) [6]: 0.04 nm | % max blocking [7]: 51% | IC50 [7]: 0.0658 nM
